One molecule from article doi:10.1101/815886 can be followed below.

In data set [1] the target is CST with CTC1 K743E/R744E (human, UniProt Q2NKJ3;Q9H668;Q86WV5 1-1217;1-368;1-123, K743E;R744E;CTC1:). Kind of data set: EMSA. In general terms: In EMSA bound probe runs differently from free probe, usually more slowly.
Data set [2] addresses CST with CTC1 K1164E/K1167E (human, UniProt Q2NKJ3;Q9H668;Q86WV5 1-1217;1-368;1-123, K1164E;K1167E;CTC1:). Kind of data set: EMSA.
Data set [3] addresses CST with CTC1 R1193E/R1195E (human, UniProt Q2NKJ3;Q9H668;Q86WV5 1-1217;1-368;1-123, R1193E;R1195E;CTC1:). As to the kind of experiment: EMSA.
Data set [4] addresses CST with CTC1 V967A/S979A/H980A (human, UniProt Q2NKJ3;Q9H668;Q86WV5 1-1217;1-368;1-123, V967A;S979A;H980A;CTC1:). As to the kind of experiment: EMSA.
Data set [5] concerns the target CST wild type (CTC1-STN1-TEN1) (human, UniProt Q2NKJ3;Q9H668;Q86WV5 1-1217;1-368;1-123). As to the kind of experiment: cryo-EM.

Sequence of CST with CTC1 R1193E/R1195E (Q2NKJ3 whole entry R1193E/R1195E, chain 1 of 3): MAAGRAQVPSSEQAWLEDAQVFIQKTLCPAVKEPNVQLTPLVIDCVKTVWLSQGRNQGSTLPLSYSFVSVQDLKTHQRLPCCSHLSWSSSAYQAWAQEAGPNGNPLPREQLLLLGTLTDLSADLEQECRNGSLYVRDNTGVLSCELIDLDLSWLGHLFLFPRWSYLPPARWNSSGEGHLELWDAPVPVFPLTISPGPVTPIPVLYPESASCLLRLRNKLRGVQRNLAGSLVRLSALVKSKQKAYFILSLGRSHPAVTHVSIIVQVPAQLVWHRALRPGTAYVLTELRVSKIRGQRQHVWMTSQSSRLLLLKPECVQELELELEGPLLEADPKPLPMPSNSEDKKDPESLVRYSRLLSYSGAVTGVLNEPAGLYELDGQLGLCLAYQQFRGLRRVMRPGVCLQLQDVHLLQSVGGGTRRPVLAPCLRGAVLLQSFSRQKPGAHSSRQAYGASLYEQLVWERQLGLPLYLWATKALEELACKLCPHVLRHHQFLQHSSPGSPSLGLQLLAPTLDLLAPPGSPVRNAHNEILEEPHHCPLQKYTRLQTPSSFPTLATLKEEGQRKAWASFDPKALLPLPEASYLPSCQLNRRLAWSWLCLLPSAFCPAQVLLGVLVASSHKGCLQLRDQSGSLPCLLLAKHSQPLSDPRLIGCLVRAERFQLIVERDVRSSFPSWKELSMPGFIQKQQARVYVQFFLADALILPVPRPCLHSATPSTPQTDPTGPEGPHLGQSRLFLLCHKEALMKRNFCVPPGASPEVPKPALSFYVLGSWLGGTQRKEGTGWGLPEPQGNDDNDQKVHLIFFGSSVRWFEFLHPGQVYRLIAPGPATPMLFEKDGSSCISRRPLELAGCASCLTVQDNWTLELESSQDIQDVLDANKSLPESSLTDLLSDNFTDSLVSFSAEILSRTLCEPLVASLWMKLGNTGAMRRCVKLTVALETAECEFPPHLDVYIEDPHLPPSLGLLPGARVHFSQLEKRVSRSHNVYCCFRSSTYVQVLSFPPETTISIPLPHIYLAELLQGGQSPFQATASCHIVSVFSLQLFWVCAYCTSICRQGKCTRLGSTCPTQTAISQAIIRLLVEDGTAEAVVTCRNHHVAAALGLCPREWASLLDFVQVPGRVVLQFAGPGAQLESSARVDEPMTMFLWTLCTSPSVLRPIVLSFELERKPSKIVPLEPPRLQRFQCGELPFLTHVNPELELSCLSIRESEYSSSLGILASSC
Sequence of CST with CTC1 R1193E/R1195E (Q9H668 whole entry, stated change not applied, chain 2 of 3): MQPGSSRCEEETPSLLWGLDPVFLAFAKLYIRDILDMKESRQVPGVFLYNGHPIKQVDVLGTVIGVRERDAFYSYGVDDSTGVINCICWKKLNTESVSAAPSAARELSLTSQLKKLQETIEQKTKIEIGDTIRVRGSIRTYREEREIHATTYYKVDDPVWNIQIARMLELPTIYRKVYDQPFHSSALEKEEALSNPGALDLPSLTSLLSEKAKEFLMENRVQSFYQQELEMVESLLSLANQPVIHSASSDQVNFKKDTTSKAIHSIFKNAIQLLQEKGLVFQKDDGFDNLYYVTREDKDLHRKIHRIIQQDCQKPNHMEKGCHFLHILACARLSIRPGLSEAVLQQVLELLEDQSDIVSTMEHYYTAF
Sequence of CST with CTC1 R1193E/R1195E (Q86WV5 whole entry, stated change not applied, chain 3 of 3): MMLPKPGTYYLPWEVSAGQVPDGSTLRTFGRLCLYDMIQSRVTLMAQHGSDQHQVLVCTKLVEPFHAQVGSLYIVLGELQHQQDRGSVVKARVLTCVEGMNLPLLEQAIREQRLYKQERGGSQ
Sequence of CST with CTC1 V967A/S979A/H980A (Q2NKJ3 whole entry V967A/S979A/H980A, chain 1 of 3): as the sequence (Q2NKJ3 whole entry R1193E/R1195E, chain 1 of 3) above, with V967A, S979A, H980A, E1193R, E1195R counted along it
Sequence of CST with CTC1 V967A/S979A/H980A (Q9H668 whole entry, stated change not applied, chain 2 of 3): as the sequence (Q9H668 whole entry, stated change not applied, chain 2 of 3) above
Sequence of CST with CTC1 V967A/S979A/H980A (Q86WV5 whole entry, stated change not applied, chain 3 of 3): as the sequence (Q86WV5 whole entry, stated change not applied, chain 3 of 3) above
Sequence of CST with CTC1 K743E/R744E (Q2NKJ3 whole entry K743E/R744E, chain 1 of 3): as the sequence (Q2NKJ3 whole entry R1193E/R1195E, chain 1 of 3) above, with K743E, R744E, E1193R, E1195R counted along it
Sequence of CST with CTC1 K743E/R744E (Q9H668 whole entry, stated change not applied, chain 2 of 3): as the sequence (Q9H668 whole entry, stated change not applied, chain 2 of 3) above
Sequence of CST with CTC1 K743E/R744E (Q86WV5 whole entry, stated change not applied, chain 3 of 3): as the sequence (Q86WV5 whole entry, stated change not applied, chain 3 of 3) above
Sequence of CST with CTC1 K1164E/K1167E (Q2NKJ3 whole entry K1164E/K1167E, chain 1 of 3): as the sequence (Q2NKJ3 whole entry R1193E/R1195E, chain 1 of 3) above, with K1164E, K1167E, E1193R, E1195R counted along it
Sequence of CST with CTC1 K1164E/K1167E (Q9H668 whole entry, stated change not applied, chain 2 of 3): as the sequence (Q9H668 whole entry, stated change not applied, chain 2 of 3) above
Sequence of CST with CTC1 K1164E/K1167E (Q86WV5 whole entry, stated change not applied, chain 3 of 3): as the sequence (Q86WV5 whole entry, stated change not applied, chain 3 of 3) above
Sequence of CST wild type (CTC1-STN1-TEN1) (Q2NKJ3 whole entry, chain 1 of 3): as the sequence (Q2NKJ3 whole entry R1193E/R1195E, chain 1 of 3) above, with E1193R, E1195R counted along it
Sequence of CST wild type (CTC1-STN1-TEN1) (Q9H668 whole entry, chain 2 of 3): as the sequence (Q9H668 whole entry, stated change not applied, chain 2 of 3) above
Sequence of CST wild type (CTC1-STN1-TEN1) (Q86WV5 whole entry, chain 3 of 3): as the sequence (Q86WV5 whole entry, stated change not applied, chain 3 of 3) above

B1: 3xTEL (ssDNA)
DNA: TTAGGGTTAGGGTTAGGG
As to B1, the binding result in data set [1] was “binds”; in data set [2], “no binding”; in data set [3] it was “no binding”; in data set [4], “no binding”; in data set [5], “binds”.
